Laboratory results reported in the supplement of paper PMC10567573.

B1: OR10K2 (parent)
chain: SLARLQQLLFVIFLLLYLFTLGTN

Variants of: B1
Experiment: protein stability index of a GFP-peptide fusion (GPS, HEK-293T) (PSI 1-6); higher = more stable
Settings: c terminus: a fixed tail appended
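Also: lentivirally expressed fusions sorted by FACS into six bins by GFP to DsRed ratio, PSI derived from sequencing read proportions per bin multiplied by bin number.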

Variant	protein stability index
SLARLQQLLFVKFLLLYLFTLGTN [I12K]	3.69
SLARLQQLLFVLFLLLYLFTLGTN [I12L]	2.29
SLARLQQLLFVEFLLLYLFTLGTN [I12E]	1.78
SLARLQQLLFVPFLLLYLFTLGTN [I12P]	3.58
SLARNQQLLFVIFLLLYLFTLGTN [L5N]	2
SLAREQQLLFVIFLLLYLFTLGTN [L5E]	2.27
SLARWQQLLFVIFLLLYLFTLGTN [L5W]	3.37
SLARVQQLLFVIFLLLYLFTLGTN [L5V]	2.44
SLARHQQLLFVIFLLLYLFTLGTN [L5H]	2.62
SLARSQQLLFVIFLLLYLFTLGTN [L5S]	3.05
SLARCQQLLFVIFLLLYLFTLGTN [L5C]	3.1
SLARFQQLLFVIFLLLYLFTLGTN [L5F]	2.59
SLARGQQLLFVIFLLLYLFTLGTN [L5G]	3.76
SLARIQQLLFVIFLLLYLFTLGTN [L5I]	1.78
SLARTQQLLFVIFLLLYLFTLGTN [L5T]	2.28
SLARLQQLLFVIFLLLYLFILGTN [T20I]	2.11
SLARLQQLLFVIFLLLYLFRLGTN [T20R]	2.2
SLARLQQLLFVIFLLLYLFNLGTN [T20N]	3.75
SLARLQQLLFVIFLLLYLFQLGTN [T20Q]	1.45
SLARLQQLLFVIFLLLYLFFLGTN [T20F]	3.51
SLARLQQLLFVIFLLLYLFLLGTN [T20L]	1.5
SLARLQQLLFVIFLLTYLFTLGTN [L16T]	3.42
SLARLQQLLFVIFLLIYLFTLGTN [L16I]	2.15
SLARLQQLLFVIFLLSYLFTLGTN [L16S]	3.14

Variant	protein stability index
SLARLQQLLFVIFLLYYLFTLGTN [L16Y]	3.45
SLARLQQLLFVIGLLLYLFTLGTN [F13G]	1.73
SLARLQQLLFVIYLLLYLFTLGTN [F13Y]	3.74
SLARLQQLLFVIQLLLYLFTLGTN [F13Q]	3.04
SLARLQQLLFVIKLLLYLFTLGTN [F13K]	1.43
SLARLQQLLFVICLLLYLFTLGTN [F13C]	3.12
SLARLQQLLFVIALLLYLFTLGTN [F13A]	2.44
SLARLQQLLFVIHLLLYLFTLGTN [F13H]	2.96
SLARLQQLLFVIWLLLYLFTLGTN [F13W]	3.36
SLARLQQLLFVIFLLLYLFTLWTN [G22W]	2.11
SLARLQQLLFVIFLLLYLFTLKTN [G22K]	2.48
SLARLQQLLFVIFLLLYLFTLHTN [G22H]	2.3
SLARLQQLLFVIFLLLYLFTLCTN [G22C]	2.65
SLARLQQLLFVIFLLLYLFTLNTN [G22N]	3.78
SLARLQQLLFVIFLLLYLITLGTN [F19I]	1.51
SLARLQQLLFVIFLLLYLMTLGTN [F19M]	2.17
SLARLQQLLFVIFLLLYLLTLGTN [F19L]	2.05
SLARLQQLLFVIFLLLYLFTNGTN [L21N]	4.16
SLARLQQLLFVIFLLLYLFTYGTN [L21Y]	1.62
SLARLQQLLFVIFLLLYLFTFGTN [L21F]	3.52
SLARLQQLLFVIFLLLYLFTSGTN [L21S]	2.34
SLARLQQLLFVIFLLLYLFTVGTN [L21V]	2.08
SLARLQQLLFVIFLLLYLFTTGTN [L21T]	3.5
SLARLQQLLFVIFLLLYLFTCGTN [L21C]	3.39

Variant	protein stability index
SLARLQQLLFHIFLLLYLFTLGTN [V11H]	2.61
SLARLQQLLFYIFLLLYLFTLGTN [V11Y]	2.3
SLARLQQLLFTIFLLLYLFTLGTN [V11T]	3.08
SLARLQQLLFSIFLLLYLFTLGTN [V11S]	1.85
SLARLQQLLFPIFLLLYLFTLGTN [V11P]	2.94
SLARLQQLLFAIFLLLYLFTLGTN [V11A]	1.59
SLARLQQLLFFIFLLLYLFTLGTN [V11F]	2.58
SLAWLQQLLFVIFLLLYLFTLGTN [R4W]	2.28
SLASLQQLLFVIFLLLYLFTLGTN [R4S]	2.62
SLAPLQQLLFVIFLLLYLFTLGTN [R4P]	2.24
SLAYLQQLLFVIFLLLYLFTLGTN [R4Y]	2.57
SLAMLQQLLFVIFLLLYLFTLGTN [R4M]	3.67
SLAILQQLLFVIFLLLYLFTLGTN [R4I]	3.36
SLAALQQLLFVIFLLLYLFTLGTN [R4A]	4.04
SLANLQQLLFVIFLLLYLFTLGTN [R4N]	2.73
SLAKLQQLLFVIFLLLYLFTLGTN [R4K]	2.19
SLADLQQLLFVIFLLLYLFTLGTN [R4D]	1.62
SLAELQQLLFVIFLLLYLFTLGTN [R4E]	3.95
SLAHLQQLLFVIFLLLYLFTLGTN [R4H]	2.36
SLARLQELLFVIFLLLYLFTLGTN [Q7E]	2.69
SLARLQGLLFVIFLLLYLFTLGTN [Q7G]	3.23
SLARLQHLLFVIFLLLYLFTLGTN [Q7H]	1.9
SLARLQKLLFVIFLLLYLFTLGTN [Q7K]	3.27
SLARLQALLFVIFLLLYLFTLGTN [Q7A]	1.91

Variant	protein stability index
SLARLQWLLFVIFLLLYLFTLGTN [Q7W]	1.58
SLARLQILLFVIFLLLYLFTLGTN [Q7I]	1.99
SLARLQPLLFVIFLLLYLFTLGTN [Q7P]	1.9
SLARLQNLLFVIFLLLYLFTLGTN [Q7N]	3.21
SLARLQFLLFVIFLLLYLFTLGTN [Q7F]	1.79
SLARLQRLLFVIFLLLYLFTLGTN [Q7R]	2.45
SLARLQSLLFVIFLLLYLFTLGTN [Q7S]	2.11
SLARLQTLLFVIFLLLYLFTLGTN [Q7T]	1.74
SCARLQQLLFVIFLLLYLFTLGTN [L2C]	2.55
SFARLQQLLFVIFLLLYLFTLGTN [L2F]	2.52
SKARLQQLLFVIFLLLYLFTLGTN [L2K]	2.49
SYARLQQLLFVIFLLLYLFTLGTN [L2Y]	2.34
SAARLQQLLFVIFLLLYLFTLGTN [L2A]	3.88
SNARLQQLLFVIFLLLYLFTLGTN [L2N]	3.77
SSARLQQLLFVIFLLLYLFTLGTN [L2S]	2.94
SEARLQQLLFVIFLLLYLFTLGTN [L2E]	2.01
SMARLQQLLFVIFLLLYLFTLGTN [L2M]	2.45
SDARLQQLLFVIFLLLYLFTLGTN [L2D]	2.06
SQARLQQLLFVIFLLLYLFTLGTN [L2Q]	2.62
SWARLQQLLFVIFLLLYLFTLGTN [L2W]	1.88
STARLQQLLFVIFLLLYLFTLGTN [L2T]	2.59
SLERLQQLLFVIFLLLYLFTLGTN [A3E]	1.91
SLMRLQQLLFVIFLLLYLFTLGTN [A3M]	1.88
SLNRLQQLLFVIFLLLYLFTLGTN [A3N]	3.31

Variant	protein stability index
SLHRLQQLLFVIFLLLYLFTLGTN [A3H]	3.07
SLQRLQQLLFVIFLLLYLFTLGTN [A3Q]	3.09
SLWRLQQLLFVIFLLLYLFTLGTN [A3W]	2.23
SLKRLQQLLFVIFLLLYLFTLGTN [A3K]	1.51
SLFRLQQLLFVIFLLLYLFTLGTN [A3F]	1.86
SLRRLQQLLFVIFLLLYLFTLGTN [A3R]	1.76
SLTRLQQLLFVIFLLLYLFTLGTN [A3T]	1.91
SLARLQQLLFVIFLLLYLFTLGHN [T23H]	1.75
SLARLQQLLFVIFLLLYLFTLGDN [T23D]	1.44
SLARLQQLLFVIFLLLYLFTLGSN [T23S]	1.86
SLARLQQLLFVIFLLLYLFTLGCN [T23C]	4.22
SLARLQQLLFVIFLLLYLFTLGRN [T23R]	1.53
SLARLAQLLFVIFLLLYLFTLGTN [Q6A]	2.61
SLARLNQLLFVIFLLLYLFTLGTN [Q6N]	2.84
SLARLEQLLFVIFLLLYLFTLGTN [Q6E]	3.01
SLARLYQLLFVIFLLLYLFTLGTN [Q6Y]	2.6
SLARLKQLLFVIFLLLYLFTLGTN [Q6K]	3.25
SLARLMQLLFVIFLLLYLFTLGTN [Q6M]	2.94
SLARLVQLLFVIFLLLYLFTLGTN [Q6V]	2.45
SLARLDQLLFVIFLLLYLFTLGTN [Q6D]	3.29
SLARLPQLLFVIFLLLYLFTLGTN [Q6P]	1.38
SLARLLQLLFVIFLLLYLFTLGTN [Q6L]	2.97
SLARLCQLLFVIFLLLYLFTLGTN [Q6C]	2.58
SLARLTQLLFVIFLLLYLFTLGTN [Q6T]	2.68

Variant	protein stability index
SLARLSQLLFVIFLLLYLFTLGTN [Q6S]	2.43
SLARLFQLLFVIFLLLYLFTLGTN [Q6F]	2.72
SLARLQQLLFVIFLLLYLFTLGTT [N24T]	2.4
SLARLQQLLFVIFLLLYLFTLGTL [N24L]	3.23
SLARLQQLLFVIFLLLYLFTLGTA [N24A]	2.11
SLARLQQLLFVIFLLLYLFTLGTI [N24I]	2.75
SLARLQQLLIVIFLLLYLFTLGTN [F10I]	4.24
SLARLQQLLQVIFLLLYLFTLGTN [F10Q]	2.22
SLARLQQLLRVIFLLLYLFTLGTN [F10R]	3.34
SLARLQQLLNVIFLLLYLFTLGTN [F10N]	2.18
SLARLQQLLVVIFLLLYLFTLGTN [F10V]	2.29
SLARLQQLLTVIFLLLYLFTLGTN [F10T]	3.08
SLARLQQLLFVIFLVLYLFTLGTN [L15V]	1.48
SLARLQQLLFVIFLQLYLFTLGTN [L15Q]	2.4
SLARLQQLWFVIFLLLYLFTLGTN [L9W]	2.84
SLARLQQLPFVIFLLLYLFTLGTN [L9P]	3.06
SLARLQQLKFVIFLLLYLFTLGTN [L9K]	3.92
SLARLQQLIFVIFLLLYLFTLGTN [L9I]	2.15
SLARLQQLCFVIFLLLYLFTLGTN [L9C]	3.51
SLARLQQLLFVIFLLLCLFTLGTN [Y17C]	2.72
SLARLQQLLFVIFLLLFLFTLGTN [Y17F]	1.68
SLARLQQLLFVIFLLLWLFTLGTN [Y17W]	2.13
SLARLQQLLFVIFLLLVLFTLGTN [Y17V]	1.57
SLARLQQLLFVIFLLLLLFTLGTN [Y17L]	2.34

Variant	protein stability index
SLARLQQLLFVIFLLLILFTLGTN [Y17I]	3.43
SLARLQQPLFVIFLLLYLFTLGTN [L8P]	3.32
SLARLQQSLFVIFLLLYLFTLGTN [L8S]	2.86
SLARLQQMLFVIFLLLYLFTLGTN [L8M]	3.83
SLARLQQGLFVIFLLLYLFTLGTN [L8G]	2.92
SLARLQQWLFVIFLLLYLFTLGTN [L8W]	2.53
SLARLQQVLFVIFLLLYLFTLGTN [L8V]	2.17
SLARLQQALFVIFLLLYLFTLGTN [L8A]	1.98
SLARLQQCLFVIFLLLYLFTLGTN [L8C]	3.24
SLARLQQKLFVIFLLLYLFTLGTN [L8K]	3.04
SLARLQQTLFVIFLLLYLFTLGTN [L8T]	1.97
SLARLQQFLFVIFLLLYLFTLGTN [L8F]	2.88
SLARLQQNLFVIFLLLYLFTLGTN [L8N]	2.24
SLARLQQYLFVIFLLLYLFTLGTN [L8Y]	3.36
SLARLQQRLFVIFLLLYLFTLGTN [L8R]	3.34
SLARLQQDLFVIFLLLYLFTLGTN [L8D]	2.99
SLARLQQILFVIFLLLYLFTLGTN [L8I]	2.4
GLARLQQLLFVIFLLLYLFTLGTN [S1G]	2.86
ALARLQQLLFVIFLLLYLFTLGTN [S1A]	2.7
QLARLQQLLFVIFLLLYLFTLGTN [S1Q]	2.21
ILARLQQLLFVIFLLLYLFTLGTN [S1I]	2.21
WLARLQQLLFVIFLLLYLFTLGTN [S1W]	1.59
TLARLQQLLFVIFLLLYLFTLGTN [S1T]	2.85
LLARLQQLLFVIFLLLYLFTLGTN [S1L]	3.72

Variant	protein stability index
HLARLQQLLFVIFLLLYLFTLGTN [S1H]	2.88
VLARLQQLLFVIFLLLYLFTLGTN [S1V]	2.31
FLARLQQLLFVIFLLLYLFTLGTN [S1F]	1.35
RLARLQQLLFVIFLLLYLFTLGTN [S1R]	2.11
PLARLQQLLFVIFLLLYLFTLGTN [S1P]	2.46
DLARLQQLLFVIFLLLYLFTLGTN [S1D]	1.54
KLARLQQLLFVIFLLLYLFTLGTN [S1K]	2.87
MLARLQQLLFVIFLLLYLFTLGTN [S1M]	3.25
CLARLQQLLFVIFLLLYLFTLGTN [S1C]	2.44
YLARLQQLLFVIFLLLYLFTLGTN [S1Y]	3.24
SLARLQQLLFVIFLLLYDFTLGTN [L18D]	1.64
SLARLQQLLFVIFLLLYIFTLGTN [L18I]	2.73
SLARLQQLLFVIFLLLYKFTLGTN [L18K]	2.07
SLARLQQLLFVIFLLLYSFTLGTN [L18S]	2.25
SLARLQQLLFVIFLLLYGFTLGTN [L18G]	2.29
SLARLQQLLFVIFLLLYMFTLGTN [L18M]	2.1
SLARLQQLLFVIFHLLYLFTLGTN [L14H]	2.31
SLARLQQLLFVIFGLLYLFTLGTN [L14G]	2.6
SLARLQQLLFVIFFLLYLFTLGTN [L14F]	2.64
SLARLQQLLFVIFILLYLFTLGTN [L14I]	2.72
